This note sets out measurements from paper PMC9185715.

For series [1], the target named is T1, nsp12 (RdRp);nsp7;nsp8 (SARS-CoV-2;SARS-CoV-2;SARS-CoV-2, UniProt P0DTD1;P0DTD1;P0DTD1 4393-5324;3860-3942;3943-4140, ||). As to the kind of experiment: EMSA; 10 mM MgCl2. The conditions noted are these: protein: recombinant;recombinant;recombinant; tags: ;N-terminal His6 removed by TEV;; copies: 1;1;2; hairpin, blunt, no 5' overhang. A general note: A gel shift assay detects complexes by their altered migration in electrophoresis.

The target of series [2] is T1, nsp12 (RdRp);nsp7;nsp8. Put plainly: EMSA; 2.4 uM protein. The conditions noted are these: protein: recombinant;recombinant;recombinant; tags: ;N-terminal His6 removed by TEV;; copies: 1;1;2.
For series [3], the target named is T1, nsp12 (RdRp);nsp7;nsp8. Put plainly: EMSA; 10 mM MgCl2; broadened shifted bands. The following applies: protein: recombinant;recombinant;recombinant; tags: ;N-terminal His6 removed by TEV;; copies: 1;1;2.

B1: CoV-RNA1 truncated (structured_RNA)
RNA: CGCGUAGUUUUCUACGCG
Consider B1, for which, in the series with nsp12 (RdRp);nsp7;nsp8 [1], the binding result is “no binding”.

B2: CoV-DNA1 (structured_DNA)
DNA: TTTTCATGCTACGCGTAGTTTTCTACGCG
Turning to B2, the binding result in the series with nsp12 (RdRp);nsp7;nsp8 [2] is given as “no binding”.

B3: CoV-RNA1 (structured_RNA)
RNA: UUUUCAUGCUACGCGUAGUUUUCUACGCG
Take B3: the binding result with nsp12 (RdRp);nsp7;nsp8 [3] is listed as “binds”.
